Reference: the DeepSol protein solubility set

Assay: soluble on expression in E. coli; label from the status in PepcDB or PDB records

Sequence	soluble on expression in E. coli
MAHHHHHHMSNAEEETVKKKKKYRKDKPWDNENIDHWKVEKFTQEDNKHHFLEESSFKVLFPKYREKYLQQFSSDIKNVLNKHFIKFEIDLIEGYMCVKTTKKTFDPYIIIKSRDMISLLSRSVPFVHAKRVLEDETYCDIIKISGYVRNKNKFIKRRQRLLGSNATTLKALEILTNCYICIHGKTVSVIGHFKSLKVVRRIIIDCMKNIHPVYHIKELIAKRELEKNEEFKNENWEKFLPNFKKRNVQRKKIKEKLDKKKKKNKSVFPPDQLPRKIDIQMETGEYFLNNQKNKKKDKTQDKQQKGND	not soluble
MGHHHHHHSHMRPRRPHQIADLFRPKDQIAYSDTSPFLILSEASLADLNSRLEKKVKATNFRPNIVISGCDVYAEDSWDELLIGDVELKRVMACSRCILTTVDPDTGVMSRKEPLETLKSYRQCDPSERKLYGKSPLFGQYFVLENPGTIKVGDPVYLLGQ	not soluble
IVGGRRARPHAWPFMVSLQLRGGHFCGATLIAPNFVMSAAHCVANVNVRAVRVVLGAHNLSRREPTRQVFAVQRIFENGYDPVNLLNDIVILQLNGSATINANVQVAQLPAQGRRLGNGVQCLAMGWGLLGRNRGIASVLQELNVTVVTSLCRRSNVCTLVRGRQAGVCFGDSGSPLVCNGLIHGIASFVRGGCASGLYPDAFAPVAQFVNWIDSIIQ	soluble
MSLKVIDFRFRPNTPEIISGIANSNMFRAACKAIGFEKRQPQPLEQIVEDLDKRGVVLSVISGRDSETTYGSPANNGSVLAFCRAYPERFIGFWGLDPHKGMAAVRELRHAVNELGMRGASIDPYLAHLRPDDARYYPIYAACCDLNVPVFITTAPPPQVAGAVMDYTDPRHVDIVARDFPELRIVMSHGGYPFVNEAIFACLRNANVYMDCSEYEQAPMAEAYIQAMNGIIQDKVVFASAHPFIEQADALEVYARMPLSDEARHKVMYANACKVLGIEGHHHHHH	soluble
MQLEPQIKTQLQAIVEAARERRAEDVVALDLTEVSSSLEYFVICTASAGLQLNAVQENIREKAQEAGLPRPSIEGPSERWLLLAFGGSIVVHIMTKDAREYYDLEGLWSDAKVLDL	soluble
MGSDKIHHHHHHMTKSDLLFDKFNDKHGKFLVFFGTFVDTPKLGELRIREKTSVGVLNGIIRFVNRNSLDPVKDCLDHDSSLSPEDVTVVDIIGKDKTRNNSFYFPGFVDTHNHVSQYPNVGVFGNSTLLDWLEKYTFPIEAALANENIAREVYNKVISKTLSHGTTTVAYYNTIDLKSTKLLAQLSSLLGQRVLVGKVCMDTNGPEYYIEDTKTSFESTVKVVKYIRETICDPLVNPIVTPRFAPSCSRELMQQLSKLVKDENIHVQTHLSENKEEIQWVQDLFPECESYTDVYDKYGLLTEKTVLAHCIHLTDAEARVIKQRRCGISHCPISNSSLTSGECRVRWLLDQGIKVGLGTDVSAGHSCSILTTGRQAFAVSRHLAMRETDHAKLSVSECLFLATMGGAQVLRMDETLGTFDVGKQFDAQMIDTNAPGSNVDMFHWQLKEKDQMQEQEQEQGQDPYKNPPLLTNEDIIAKWFFNGDDRNTTKVWVAGQQVYQI	not soluble
MAEPGGHEGPASTQRAKVCETHTAMVFFVEDRVYKRKKPVDLGFLDYTTRSSRRAVCEREIELNRRFAPDVYLGLGELRTPGEQEAEPLVVMRRMPDDRRLSHLVRTGAPVADDLRAVARHLAAWHSAAPRGPAIAEQGTRDALAARWEASFTQVDVLAAKGPTRDEAGEVERLVRRYLAGRKPLFGLRIEQGRVLDGHGDLLADDVFCLGDGPRILDCLEFDDALRYVDGLDDAAFLAMDLESLGAPESAAFFLAQYGEYSGDPAPPSLWHHYVAYRAFVRAKVSLIQARQGAPGAHATARRLVRMALRHLRASAVGLTLVAGLPGTGKSTLSGALADRLGAVLLSSDRLRKEMAGLSPQQTASADYGEGLYTPEWTARTYAELLDRAAALLALGESVVLDATWIDSAQREAARHTAESAGADLVALHCHVPDDVTAARLSTRAPGASDADLGVAEAMAAEEQPWSGAVGVDTGGSLEAAVGQALAAVRPWGSDQAKVFRRPYMEPDLEHHHHHH	not soluble
MGHHHHHHSHMSVAGGEIRGDTGGEDTAAPGRFSFSPEPTLEDIRRLHAEFAAERDWEQFHQPRNLLLALVGEVGELAELFQWKTDGEPGPQGWSPRERAALQEELSDVLIYLVALAARCRVDLPLAVLSKMDINRRRYPAHLARSSSRKYTELPHGAISEDQAVGPADIPCDSTGQTST	soluble
MAHHHHHHMYYIYFENVKDEKEKKECEEFIYQIYMMENIKKDAILKLKNEKNENLYLLYLYYKYYYMNDKENVLNEIKQLNTSSCNANILKSRIFFDNDLLDECFDLLENGTIEIKAAKIFFLLNINRQDIVNEIIKDFLHMNEEIPIIKIVLAIYYLFNDNNKESFLIFDDLESLYGSMINDHSNIILNGKAVASILNYEFNDAKEFLKNQINNGDILYNLITCSLYLYELDEANEYLTKLYDNYSSHDSLKVLKKIDDEVDNFVSEF	not soluble
MKLERQKLLAKVAYLYYMEGKSQSEIANELGIYRTTISRMLAKAREEGLVRIEISDFNPEIFQLESYFKSKYHLKDIEIVSSRKDSDTSEIEKDLAHVAAAMIRKKIKENDKVGIAWGRTLSKVVEAMRPHPVSQVSFVPLAGGPSHINARYHVNTLVYEMSRRFQGSCTFINATLVQENANLAKGILTSKYFEGLMDNWEKLDVAIVGVGGKPKSNEQQWLDLLNQDDFQCLDEEAAVGEITCRFFNHSGDPVNQHLAKRTIGITLEQLQKVPNRIAVAHGNYKAAALLAVLKKGYINHLVTDFSTALNILRLDKDTFVDTIYQKS	not soluble
MGSDKIHHHHHHMINTDHPIRIAIAGLGFGESVHIPASLSNKNIELVGLWHPRPERLKEACNKHNLRAYETWEDLVNDSKVDGIIIATPPAPRYELALEAIKGGKHLLLEKPTCLNAYEVMELQRNALKRNLKIAVDYEYRAVPLFMQAKRIITEKKLDEPYFVKLDWLMSSRANPDRPWNWYSDENSGGGVLGALGTHAFDMIHWLIGPTHSLSAINSTSIEERECPQSKTIKKVTSEDVSISQLQIKSINNNLIPAQVNLSAVTKQSRGFSLEIYGSNGTLVLSSENQNDYVHGFGLWYSNKGDVLKNIQPDSDLSFSKIWTDGRIAPVARIQNWWAQSIADGTPVIPGLVEGLASQIVCDKVKESNSIGMKIEIN	not soluble
MGSDKIHHHHHHMEQNRFKKETKTCSASWPRAPQSTLCATDRLELTYDVYTSAERQRRSRTATRLNLVFLHGSGMSKVVWEYYLPRLVAADAEGNYAIDKVLLIDQVNHGDSAVRNRGRLGTNFNWIDGARDVLKIATCELGSIDSHPALNVVIGHSMGGFQALACDVLQPNLFHLLILIEPVVITRKAIGAGRPGLPPDSPQIPENLYNSLRLKTCDHFANESEYVKYMRNGSFFTNAHSQILQNIIDFERTKASGDDEDGGPVRTKMEQAQNLLCYMNMQTFAPFLISNVKFVRKRTIHIVGARSNWCPPQNQLFLQKTLQNYHLDVIPGGSHLVNVEAPDLVIERINHHIHEFVLTSPLQSSHIPQLTLEERAVMFDRAFDSFKNEALVKTTKQKL	not soluble
MNSDVIKGKWKQLTGKIKERWGDLTDDDLQAADGHAEYLVGKLQERYGWSKERAEQEVRDFSDRL	soluble
MTTTDVSWPKSLWHAVTGPGPGLPALHGAEEADVVVVGGGFSGLSTALHLREAGVDVAVVEAAEPGWGASGRNNGQVIPTLSRPDPEDIVAKHGAAGERLVGLIRDSASILFDVAKRHGVDAEQEQNGWVQPVHSPGRIKIAERRFRQWSKFGAPVELLSRDQVRDMLGSEAWFGGFWNRTGGHVNPLALARGLARAVLAQGGRIFARSPAVSIERRGDRWIVKTAQGEISGRALVVASNAYTGEFSKTLAPAIASEVMPVRSWQMATQPLSDNVRKTIIPGRQAMSDTHGELIFGRFDARNRFVTGGAIIRPFNQIATLKARVGKRLQRLWPQIGEVRFDYVWNGFIGMTTDYLPHIHRLGPNAYGWTGCNGRGVALSVALGRELSKAVRGVTDGELALPFTEPTPIPANELLRPFAPLMMVLYRHRDAKEIGLEHHHHHH	not soluble
MAGDPMTFLIIRQTHENVLSKETVVKKVEASYEGKVTKATQSKDKKTYDITLENPKGTYFVKADAISADILSMNRVKAVNPSAMTEKEAEHLALERVPGTVKKQTRQSQVATYTIQKEDGKTYEVKVDMQAKTVLSADQISSKDQQKTPITKKEAKTIAERKTGGTADDADLEESEGTLIFEVDVDLPDNKEATVKINAYTGKVANIVYEDLEHHHHHH	not soluble
MPKETFYNLSEEKRQRIINSAEKEFFRVPLSKASIANIVTGAQIPRGSFYQYFDDLNDLYHYFFEKKFQGFHENFKKELENHQGDLIEAWRQVAKKVLRRIVNSENSIFFENAIFGLNIQRDQNIIDSFANFHHPENKAPEYFDEIDFSFLKIKSKKDLITLRHIMSGIIIQAATAYFSKCDSGQKVDLEEILEGIDKQIDWLKYGVYKEKEHD	not soluble
MAHHHHHHMEDVRPVTSPLTEDTAYTRCLRGAKEAKERGNTAISDKNFKEASFQYKKALLFLSEYIPGDGGFSEDALIDMLARRRGVATPRDLSPGRKSELMDLYVTVMNNLAVADMRLCRFDKGVEHTTKVLNVPGQEKNRKALWRRAECHVQRGHIEEAEKDVDVLAACAEGNGQQSEEVVEQLRMKIKEKKKQLVREERAICKKMFEHGS	soluble
MAHAPARCPSARGSGDGEMGKPRNVALITGITGQDGSYLAEFLLEKGYEVHGIVRRSSSFNTGRIEHLYKNPQAHIEGNMKLHYGDLTDSTCLVKIINEVKPTEIYNLGAQSHVKISFDLAEYTADVDGVGTLRLLDAVKTCGLINSVKFYQASTSELYGKVQEIPQKETTPFYPRSPYGAAKLYAYWIVVNFREAYNLFAVNGILFNHESPRRGANFVTRKISRSVAKIYLGQLECFSLGNLDAKRDWGHAKDYVEAMWLMLQNDEPEDFVIATGEVHSVREFVEKSFLHIGKTIVWEGKNENEVGRCKETGKVHVTVDLKYYRPTEVDFLQGDCTKAKQKLNWKPRVAFDELVREMVHADVELMRTNPNA	not soluble
MGSDKIHHHHHHMELNIPLVLQNKTPIYLQIYEYMKREISHGSLCAGTRLPSHRNLAMQLNVSRITVESAYQQLLAEGYVESKPKRGIFVAEVDIDVIQKKQQIVSNSANNKEKEQYDYDCSQGLIDQKAFPITNWKRALHETLFQYENELFAKEDPQGELVLREHISKYLYHARGVHSSPDQIIIGAGTQPLLWLLLQLLGSKKEYGIENPGFHRIPAMIQSSGLPVHPIPLDDKGIHISALRESGSNVAYVTPSHQFPLGIIMPLSRRLELLKWANDCKGYIVEDDYDGEFRYIGKPIPSLQGLDSNERVIYMGTFSKSFLPSLRMGYIVLPPHLLKTYKELGGMYKQTVSTMQQLTFATFIQSGDWERHINRSRTLYKRKHISLIKSITNEMGNNVHILGEQSGLHIVLHVHNGMNEQELIHAAAKQRIKLYPLSTYDSVHNVREESYVLLGFGSIPENRIETVVQLLKKAWFPK	not soluble
MHSYHNPGVPTALSIFEPLQDGSTISVHGHVRHGHHKNFAVELLSGPNVVLHVNFRFHHEHVVVMNSQFSGMWGPEIRHKNPLHHSEHFHLSIKVHAGYYHISVNGHHLADYPHRYPYQSVQAIGLKGDVHVDKVHFEGFHFQRRWDGHVDHGHSGYNAYGTETYVAPVFVQPNFMPYGAPPPPVQNFNPYR	not soluble
MNYHQYYPIDVVNGPGTRCTLFVSGCVHQCRGCYNQSTQRLDSGVLFTQEAEDKIINDLNDTRIKRRGLSLSGGDPLHPANVPHILKIVKRVREECPGKDIWVWTGYTLAELDDAQREVVQYIDVLIDGKFEQDKKDLNLEWRGSSNQIIHRFTDILEHHHHHH	not soluble
